Laboratory results published in patent publication US20230192894A1.

Molecular target: canine FcεRIα on the surface of canine mast cell line HMRC cells (canine)
Assay: flow cytometry, FITC-labelled control on canine mast cell line HMRC

Substance: mouse IgG2b isotype control labeled with FITC (antibody)
- median fluorescence intensity: 1720
